The results in this text go back to publication PMC11352367 (Cells, 2024).

This series concerns the molecule itself. As to the kind of experiment: high-speed atomic force microscopy; α-actinin alone (50 nM) on bare mica, observation buffer, room temperature.

B1: Rabbit skeletal muscle-derived α-actinin (natural protein)
chain: MNQIEPGVQYNYVYDEDEYMIQEEEWDRDLLLDPAWEKQQRKTFTAWCNSHLRKAGTQIENIEEDFRNGLKLMLLLEVISGERLPKPDRGKMRFHKIANVNKALDYIASKGVKLVSIGAEEIVDGNVKMTLGMIWTIILRFAIQDISVEETSAKEGLLLWCQRKTAPYRNVNIQNFHTSWKDGLGLCALIHRHRPDLIDYSKLNKDDPIGNINLAMEIAEKHLDIPKMLDAEDIVNTPKPDERAIMTYVSCFYHAFAGAEQAETAANRICKVLAVNQENERLMEEYERLASELLEWIRRTIPWLENRTPEKTMKAMQKKLEDFRDYRRKHKPPKVQEKCQLEINFNTLQTKLRISNRPAFMPSEGKMVSDAGAWQRLEQAEKGYEEWLLNEIRRLERLEHLAEKFRQKASTHETWAYGKEQILLQKDYESASLTEVRALLRKHEAFESDLAAHQDRVEQIAAIAQELNELDYHDAVNVNDRCQKICDQWDRLGTLTQKRREALERTEKLLETIDQLHLEFAKRAAPFNNWMEGAMEDLQDMFIVHSIEEIQSLITAHEQFKATLPEADGERQSIMAIQNEVEKVIQSYNIRISSSNPYSTVTMDELRAKWDKVKQLVPIRDQSLQEELARQHANERLRRQFAAQANAIGPWIQNKMEEIARSSIQITGALEDQMNQLKQYEHNIINYKNNIDKLEGDHQLIQEALVFDNKHTNYTMEHIRVGWELLLTTIARTINEVETQILTRDAKGITQEQMNEFRASFNHFDRRKNGLMDHEDFRACLISMGYDLGEAEFARIMTLVDPNGQGTVTFQSFIDFMTRETADTDTAEQVIASFRILASDKPYILAEELRRELPPDQAQYCIKRMPAYSGPGSVPGALDYTAFSSALYGESDL
For orientation: stoichiometry N means the number of molecules, sites or subunits per partner or assembly. In the case of B1, the “stoichiometry N” value stood at 2.
